Entries after “also recorded” stand apart in the source; their conditions may differ. Read-outs that look alike come from different tables or passages of the source. Where no end group is shown, it is not given here.
Assays:
adjuvant arthritis [1] = format: in vivo, Lewis rats
adjuvant arthritis [2] = tested on: adjuvant arthritis; set-up: species or system Lewis rats; settings: rat, in vivo
adjuvant arthritis [3] = assay: Adjuvant-induced model of arthritis, summary statements on prevention and treatment; format: in vivo, Lewis rats; settings: summary statement
adjuvant arthritis [4] = settings: for Development of experimental allergic encephalomyelitis (EAE): arthritogenic doses of CFA (Mb) combined with MBP

FSWGAEGQR [EAE peptide, EAE peptide derived from MBP, reference compound]
Effect on the course of pre-existing arthritis (adjuvant arthritis [1]; rat, in vivo): somewhat effective

B1: BP: Porcine myelin basic protein (Lilly) (protein, UniProt P81558 1-171, looked up)
Myelin basic protein: ASQKRPSQRHGSKYLASASTMDHARHGFLPRHRDTGIDSLGRFFGADRGAPKRGSGKDGHHAARTTHYGSLPQKAQHGRPQDENPVVHFFKNIVTPRTPPPSQGKGRGLSLSRFSWGAEGQKPGFGYGGRAPDYKPAHKGLKGAQDAQGTLSKIFKLGGRDSRSGSPMARR
Effect on the course of pre-existing arthritis (adjuvant arthritis [1]; rat, in vivo): marked effect on the course of the arthritis, reducing the clinical severity of the disease
Remission of arthritis (adjuvant arthritis [1]; rat, in vivo): complete remission in all three animals tested
Anti-arthritic activity after storage (adjuvant arthritis [1]; solvated and kept in refrigerator at 4 degrees centigrade for three months): no activity
Protective effect against induction of adjuvant arthritis (adjuvant arthritis [2]): minimal protective effects that were of limited clinical value
Prevention and suppression/treatment of arthritis (summary in words) (adjuvant arthritis [3]; listed as MBP): prevent and suppress arthritis
Prevention and suppression/treatment of arthritis (summary in words) (adjuvant arthritis [3]; listed as pMBP): appear to protect against and to effectively treat pre-existing arthritis clinical symptoms
Development of experimental allergic encephalomyelitis (EAE) (adjuvant arthritis [4]): developed experimental allergic encephalomyelitis (EAE)
Development of experimental allergic encephalomyelitis (EAE) (adjuvant arthritis [4]; listed as MBP): All six animals developed EAE
A. Number of animals inoculated/number of animals with arthritis (adjuvant arthritis [4]; rat, in vivo): 0/6
C. Average day of onset of arthritis (adjuvant arthritis [4]; rat, in vivo): 0 days
D. Average duration of symptoms (adjuvant arthritis [4]; rat, in vivo): 0 days
Effect of co-inoculation with FCA on arthritis (in words) (adjuvant arthritis [4]; rat, in vivo): did not develop any symptoms of arthritis over a period of 2 months
Effect of co-inoculation with FCA on arthritis (in words) (adjuvant arthritis [4]; rat, in vivo, listed as MBP): none had any clinical signs or arthritis

B2: OA: chicken ovalbumin (Sigma) (protein, UniProt P01012 2-386, looked up)
Ovalbumin: GSIGAASMEFCFDVFKELKVHHANENIFYCPIAIMSALAMVYLGAKDSTRTQINKVVRFDKLPGFGDSIEAQCGTSVNVHSSLRDILNQITKPNDVYSFSLASRLYAEERYPILPEYLQCVKELYRGGLEPINFQTAADQARELINSWVESQTNGIIRNVLQPSSVDSQTAMVLVNAIVFKGLWEKAFKDEDTQAMPFRVTEQESKPVQMMYQIGLFRVASMASEKMKILELPFASGTMSMLVLLPDEVSGLEQLESIINFEKLTEWTSSNVMEERKIKVYLPRMKMEEKYNLTSVLMAMGITDVFSSSANLSGISSAESLKISQAVHAAHAEINEAGREVVGSAEAGVDAASVSEEFRADHPFLFCIKHIATNAVLFFGRCVSP
Protective effect against induction of adjuvant arthritis (adjuvant arthritis [2]): very significant protective effects against induction of adjuvant arthritis; also recorded: protective

Reference: patent US5942491A (priority 1996, dated 1999)
